Data from article PMC6423499 (2019).

Biological target: VHL (VHL/ElonginB/ElonginC, VCB) as used in solution (UniProt P40337 1-213; Q15370 1-104; Q15369 17-112)
Assay: FP; MZ1 ternary

Chain of VHL (VHL/ElonginB/ElonginC, VCB) as used in solution (P40337 whole entry, chain 1 of 3): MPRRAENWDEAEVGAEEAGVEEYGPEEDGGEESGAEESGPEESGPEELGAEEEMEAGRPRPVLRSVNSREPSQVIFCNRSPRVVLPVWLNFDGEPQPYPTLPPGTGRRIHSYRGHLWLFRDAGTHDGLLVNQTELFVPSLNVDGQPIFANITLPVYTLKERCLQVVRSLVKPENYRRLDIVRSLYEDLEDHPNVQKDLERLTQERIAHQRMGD
Chain of VHL (VHL/ElonginB/ElonginC, VCB) as used in solution (Q15370 1-104, chain 2 of 3): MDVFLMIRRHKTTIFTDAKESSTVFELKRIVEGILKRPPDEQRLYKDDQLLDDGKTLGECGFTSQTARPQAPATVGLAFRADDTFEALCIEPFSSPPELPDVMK
Chain of VHL (VHL/ElonginB/ElonginC, VCB) as used in solution (Q15369 17-112, chain 3 of 3): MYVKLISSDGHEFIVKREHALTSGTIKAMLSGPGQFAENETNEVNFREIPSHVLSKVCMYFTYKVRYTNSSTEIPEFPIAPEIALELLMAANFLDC

B1: Brd2^BD2 with the G-to-E point mutation at Gly382 (domain or fragment)
chain: GKLSEQLKHCNGILKELLSKKHAAYAWPFYKPVDASALELHDYHDIIKHPMDLSTVKRKMENRDYRDAQEFAADVRLMFSNCYKYNPPDHDVVAMARKLQDVFEFRYAKMPD
  Ki: 6 nM
